# T1: BANP BEN domain (human, UniProt Q8N9N5 208-347)
# T1 sequence: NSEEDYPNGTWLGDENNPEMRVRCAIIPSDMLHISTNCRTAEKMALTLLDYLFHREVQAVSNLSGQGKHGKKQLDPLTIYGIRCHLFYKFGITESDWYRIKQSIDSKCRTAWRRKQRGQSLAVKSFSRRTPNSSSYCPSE
# T2: BEND6 BEN domain (human, UniProt Q5SZJ8 170-271)
# T2 sequence: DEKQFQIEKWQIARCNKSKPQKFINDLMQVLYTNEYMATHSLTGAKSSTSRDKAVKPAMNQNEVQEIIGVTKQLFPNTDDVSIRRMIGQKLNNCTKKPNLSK
# Key:
# BANP BEN domain = target: T1, BANP BEN domain; assay: ITC; ITC: 150 mM NaCl, 20 mM Tris-HCl pH 7.5, with or without DTT, 25 C, 50-90 uM protein in cell, 1 mM DNA in syringe; FP: 20 mM Tris-HCl pH 7.5, 150 mM NaCl, 1 mM; conditions: protein: recombinant, tags: His6-SUMO removed by TEV, blunt
# BEND6 BEN domain = target: T2, BEND6 BEN domain; assay: fluorescence polarization; ITC: 150 mM NaCl, 20 mM Tris-HCl pH 7.5, with or without DTT, 25 C, 50-90 uM protein in cell, 1 mM DNA in syringe; FP: 20 mM Tris-HCl pH 7.5, 150 mM NaCl, 1 mM; conditions: protein: recombinant, tags: His6 (pET28-MHL) removed by TEV, label: 5' FAM
Binder,Kd (BANP BEN domain),also measured
CGCG DNA (dsDNA) DNA 1: CTCTCGCGAGAG DNA 2: CTCTCGCGAGAG,,Kd (BANP BEN domain; self-complementary): 8.4 ± 0.7 µM
PBM motif DNA AAATCTCG (dsDNA) DNA 1: GCAAATCTCGTA DNA 2: TACGAGATTTGC,1 ± 0.1 µM,
"CGmCG DNA (dsDNA, 5-methylcytosine at C7 of both strands) DNA 1: CTCTCGCGAGAG DNA 2: CTCTCGCGAGAG",,Kd (BANP BEN domain; self-complementary): 7.6 ± 0.3 µM
FAM-CGCG DNA (dsDNA) DNA 1: CTCTCGCGAGAG DNA 2: CTCTCGCGAGAG,,"Kd (BEND6 BEN domain; blunt, self-complementary): ~33 µM"
"FAM methylated CGCG DNA (dsDNA, 5-methylcytosine, position not given) DNA 1: CTCTCGCGAGAG DNA 2: CTCTCGCGAGAG",,Kd (BEND6 BEN domain): ~39 µM
AAA to cag (dsDNA) DNA 1: GCCAGTCTCGTA DNA 2: TACGAGACTGGC,2.9 ± 0.3 µM,
AAA to ggg (dsDNA) DNA 1: GCGGGTCTCGTA DNA 2: TACGAGACCCGC,4.3 ± 0.3 µM,
TCTCG to caaca (dsDNA) DNA 1: GCAAACAACATA DNA 2: TATGTTGTTTGC,5.4 ± 0.4 µM,
TCTCG to TCGCG (dsDNA) DNA 1: GCAAATCGCGTA DNA 2: TACGCGATTTGC,1.5 ± 0.2 µM,
AAA and TCTCG both mutated (dsDNA) DNA 1: GCCAGCAACATA DNA 2: TATGTTGCTGGC,15.1 ± 1.9 µM,
CTCtggcgAGAG (dsDNA) DNA 1: CTCTGGCGAGAG DNA 2: CTCTCGCCAGAG,14.8 ± 2.3 µM,
CTCacgcgAGAG (dsDNA) DNA 1: CTCACGCGAGAG DNA 2: CTCTCGCGTGAG,14.3 ± 2.6 µM,
CTCgagcgAGAG (dsDNA) DNA 1: CTCGAGCGAGAG DNA 2: CTCTCGCTCGAG,14.1 ± 3 µM,

# Source: PMC10206803, “Structural insights into DNA recognition by the BEN domain of the transcription factor BANP”
